Measured values as given in patent US20240325526A1.

Assays:
[1] = target: IL1B_FL (Mus musculus wild-type pro-IL1β) (Mus musculus) (UniProt P10749); test: cell-based or functional assay
[2] = target: T1, IL1B_FL (Mus musculus wild-type pro-IL1β)
T1 chain: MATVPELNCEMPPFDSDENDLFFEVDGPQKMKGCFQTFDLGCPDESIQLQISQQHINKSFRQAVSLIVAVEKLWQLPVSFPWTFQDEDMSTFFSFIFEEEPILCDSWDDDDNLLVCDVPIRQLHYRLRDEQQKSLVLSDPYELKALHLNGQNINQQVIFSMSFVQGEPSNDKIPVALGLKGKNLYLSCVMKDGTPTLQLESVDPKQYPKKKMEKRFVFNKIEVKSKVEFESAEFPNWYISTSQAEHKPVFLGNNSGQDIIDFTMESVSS

[3] = target: hIL1B_FL (human wild-type pro-IL1β)

| Molecule | ability to process pro-IL1β (data not shown) [2] | ability to process pro-IL1β (data not shown) [3] | also measured |
| --- | --- | --- | --- |
| CASP1_RV2 (constitutively active murine caspase-1, p10 and p20 domain reversal, N-terminal p20 remnant removed) (from UniProt P29452 92-296) (enzyme) | – | – | potency against CASP1 WT; IL-1β and LDH activity in supernatants of B16-F10 cells co-transfected with pro-IL1β plasmid [1]: 30 fold |
| CASP1_RV2_D143A (protein) MSEEDFLTDAIFEDDGIKKAHIEKDFIAFCSSTPDNVSWRHPVRGSLFIESLIKHMKEYAWSCDLEDIFRKVRFSFEQPEFRLQMPTADRVTLTKRFYLFPGHLLVCDVPIRAPSAETFVATEDSKGGHPSSSETKEEQNKEAGTFPGLTGTLKFCPLEKAQKLWKENPSEIYPIMNTTTRTRLALIICNTEFQHLSPRVGAQVDLREMKLLLEDLGYTVKVKENLTALEMVKEVKEFAACPEHKTSDSTFLVFMSHGIQEGICGTTYSNEVSDILKVDTIFQMMNTLKCPSLKDKPKVIIIQACRGEKQGVVLLKD | did not significantly affect their ability to process pro-IL1β | – | – |
| CASP1_RV2_D108A (protein) MSEEDFLTDAIFEDDGIKKAHIEKDFIAFCSSTPDNVSWRHPVRGSLFIESLIKHMKEYAWSCDLEDIFRKVRFSFEQPEFRLQMPTADRVTLTKRFYLFPGHLLVCAVPIRAPSAETFVATEDSKGGHPSSSETKEEQNKEDGTFPGLTGTLKFCPLEKAQKLWKENPSEIYPIMNTTTRTRLALIICNTEFQHLSPRVGAQVDLREMKLLLEDLGYTVKVKENLTALEMVKEVKEFAACPEHKTSDSTFLVFMSHGIQEGICGTTYSNEVSDILKVDTIFQMMNTLKCPSLKDKPKVIIIQACRGEKQGVVLLKD | did not significantly affect their ability to process pro-IL1β | – | – |
| CASP1_RV2_D124A (protein) MSEEDFLTDAIFEDDGIKKAHIEKDFIAFCSSTPDNVSWRHPVRGSLFIESLIKHMKEYAWSCDLEDIFRKVRFSFEQPEFRLQMPTADRVTLTKRFYLFPGHLLVCDVPIRAPSAETFVATEASKGGHPSSSETKEEQNKEDGTFPGLTGTLKFCPLEKAQKLWKENPSEIYPIMNTTTRTRLALIICNTEFQHLSPRVGAQVDLREMKLLLEDLGYTVKVKENLTALEMVKEVKEFAACPEHKTSDSTFLVFMSHGIQEGICGTTYSNEVSDILKVDTIFQMMNTLKCPSLKDKPKVIIIQACRGEKQGVVLLKD | did not significantly affect their ability to process pro-IL1β | – | – |
| CASP1_RV2_D108A_D124A_D143A (protein) MSEEDFLTDAIFEDDGIKKAHIEKDFIAFCSSTPDNVSWRHPVRGSLFIESLIKHMKEYAWSCDLEDIFRKVRFSFEQPEFRLQMPTADRVTLTKRFYLFPGHLLVCAVPIRAPSAETFVATEASKGGHPSSSETKEEQNKEAGTFPGLTGTLKFCPLEKAQKLWKENPSEIYPIMNTTTRTRLALIICNTEFQHLSPRVGAQVDLREMKLLLEDLGYTVKVKENLTALEMVKEVKEFAACPEHKTSDSTFLVFMSHGIQEGICGTTYSNEVSDILKVDTIFQMMNTLKCPSLKDKPKVIIIQACRGEKQGVVLLKD | did not significantly affect their ability to process pro-IL1β | – | – |
| hCASP1_RV2_D108A (protein) MGNLSLPTTEEFEDDAIKKAHIEKDFIAFCSSTPDNVSWRHPTMGSVFIGRLIEHMQEYACSCDVEEIFRKVRFSFEQPDGRAQMPTTERVTLTRCFYLFPGHAYVHAAPVRDQTSGNYLNMQDSQGVLSSFPAPQAVQDNPAMPTSSGSEGNVKLCSLEEAQRIWKQKSAEIYPIMDKSSRTRLALIICNEEFDSIPRRTGAEVDITGMTMLLQNLGYSVDVKKNLTASDMTTELEAFAHRPEHKTSDSTFLVFMSHGIREGICGKKHSEQVPDILQLNAIFNMLNTKNCPSLKDKPKVIIIQACRGDSPGVVWFKD | – | did not significantly affect their ability to process pro-IL1β | – |
| hCASP1_RV2_D140A (protein) MGNLSLPTTEEFEDDAIKKAHIEKDFIAFCSSTPDNVSWRHPTMGSVFIGRLIEHMQEYACSCDVEEIFRKVRFSFEQPDGRAQMPTTERVTLTRCFYLFPGHAYVHDAPVRDQTSGNYLNMQDSQGVLSSFPAPQAVQANPAMPTSSGSEGNVKLCSLEEAQRIWKQKSAEIYPIMDKSSRTRLALIICNEEFDSIPRRTGAEVDITGMTMLLQNLGYSVDVKKNLTASDMTTELEAFAHRPEHKTSDSTFLVFMSHGIREGICGKKHSEQVPDILQLNAIFNMLNTKNCPSLKDKPKVIIIQACRGDSPGVVWFKD | – | did not significantly affect their ability to process pro-IL1β | – |
| hCASP1_RV2_D124A (protein) MGNLSLPTTEEFEDDAIKKAHIEKDFIAFCSSTPDNVSWRHPTMGSVFIGRLIEHMQEYACSCDVEEIFRKVRFSFEQPDGRAQMPTTERVTLTRCFYLFPGHAYVHDAPVRDQTSGNYLNMQASQGVLSSFPAPQAVQDNPAMPTSSGSEGNVKLCSLEEAQRIWKQKSAEIYPIMDKSSRTRLALIICNEEFDSIPRRTGAEVDITGMTMLLQNLGYSVDVKKNLTASDMTTELEAFAHRPEHKTSDSTFLVFMSHGIREGICGKKHSEQVPDILQLNAIFNMLNTKNCPSLKDKPKVIIIQACRGDSPGVVWFKD | – | did not significantly affect their ability to process pro-IL1β | – |
